Test results taken from patent publication US20160237164A1 (VIVENTIA BIO, published 2016).
Where a chain is given by its changes, count along the chain named. Read-outs that look alike come from different tables or passages of the source.

Key:
[1] = molecular target: Epithelial Cell Adhesion Molecule (EpCAM) (human) (UniProt P16422)
[2] = molecular target: Epithelial Cell Adhesion Molecule (EpCAM) (human) (UniProt P16422); remark: listed apart in the source
[3] = molecular target: Epithelial Cell Adhesion Molecule (EpCAM) (human) (UniProt P16422); remark: listed apart in the source
[4] = molecular target: T1, Epithelial Cell Adhesion Molecule (EpCAM) (human, UniProt P16422 24-314); test: flow cytometry titration (3.2 to 1000 ng/mL) on CAL-27 cells, Lineweaver-Burk plot
T1 construct: whole, on cells; also called 17-1A; KSA
T1 sequence (looked up): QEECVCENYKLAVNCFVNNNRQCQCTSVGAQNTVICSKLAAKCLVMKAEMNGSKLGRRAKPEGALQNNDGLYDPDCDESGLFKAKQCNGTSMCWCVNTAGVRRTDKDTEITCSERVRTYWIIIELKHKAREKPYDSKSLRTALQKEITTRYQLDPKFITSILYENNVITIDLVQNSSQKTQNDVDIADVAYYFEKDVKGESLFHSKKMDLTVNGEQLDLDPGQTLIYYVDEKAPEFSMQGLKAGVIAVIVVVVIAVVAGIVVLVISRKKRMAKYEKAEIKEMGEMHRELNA

[5] = molecular target: T2, Epithelial Cell Adhesion Molecule (EpCAM) (human, UniProt P16422 24-314); test: flow cytometry (Lineweaver-Burk), Cal-27 cells
T2 chain: T1 sequence (looked up)

[6] = molecular target: T1, Epithelial Cell Adhesion Molecule …; test: flow cytometry on MCF-7 cells (EpCAM-positive), purified protein at 100 ng/mL
[7] = molecular target: T1, Epithelial Cell Adhesion Molecule …; test: cell-based or functional assay
[8] = molecular target: T1, Epithelial Cell Adhesion Molecule …; test: flow cytometry on CAL-27 cells (EpCAM-positive), purified protein at 100 ng/mL
[9] = molecular target: T1, Epithelial Cell Adhesion Molecule …; test: flow cytometry on OVCAR-3 cells (EpCAM-positive), purified protein at 100 ng/mL
[10] = molecular target: T1, Epithelial Cell Adhesion Molecule …; test: flow cytometry on HT-29 cells (EpCAM-positive), purified protein at 100 ng/mL
[11] = molecular target: T1, Epithelial Cell Adhesion Molecule …
[12] = molecular target: T1, Epithelial Cell Adhesion Molecule …; remark: listed apart in the source
[13] = molecular target: T1, Epithelial Cell Adhesion Molecule …; remark: listed apart in the source
[14] = molecular target: T1, Epithelial Cell Adhesion Molecule …; remark: listed apart in the source

VB6-845 VH-WT / VL-FR2 (H39-S42), second version (Fab)
MF (median fluorescence, % of WT) [1]: 68 % of WT

VB6-845 VH-N53 / VL-WT (Fab)
MF (median fluorescence, % of WT) [2]: 23 % of WT

VB6-845 VH-WT / VL-FR2 (D41-Q42), first version (Fab)
MF (median fluorescence, % of WT) [3]: 84 % of WT

VB6-845 VH-WT / VL-CDR2 (E51-H53-Q55) (Fab)
MF (median fluorescence, % of WT) [1]: 70 % of WT

VB6-845 VH-S93 / VL-WT (Fab)
MF (median fluorescence, % of WT) [2]: 35 % of WT

B1: VB5-845-WT (non-deimmunized VB5-845 Fab fragment) (Fab, V domains shown)
VH: EVQLVQSGPGLVQPGGSVRISCAASGYTFTNYGMNWVKQAPGKGLEWMGWINTYTGESTYADSFKGRFTFSLDTSASAAYLQINSLRAEDTAVYYCARFAIKGDYWGQGTLLTVSS
VL: DIQMTQSPSSLSASVGDRVTITCRSTKSLLHSNGITYLYWYQQKPGKAPKLLIYQMSNLASGVPSRFSSSGSGTDFTLTISSLQPEDFATYYCAQNLEIPRTFGQGTKVELKR
Kd [4]: 1.56 nM | Kd [5]: 1.46 nM

B2: VB6-845-Algo (VH-IIr-N35-Q98 / VL-IIr-KSHI) (Fab)
heavy: EVQLQQSGPGLVQPGGSVRISCAASGYTFTAYGMNWVRQAPGKGLEWMGWINTYTGESTYADSFKGRFEFSLDTHNSSAYLQIQSLREEDTAVYYCARFAIQGDYWGQGTLVTVSSASTKGPSVFPLAPSSKSTSGGTAALGCLVKDYFPEPVTVSWNSGALTSGVHTFPAVLQSSGLYSLSSVVTVPSSSLGTQTYICNVNHKPSNTKVDKKVEPKSC
light: DIQMTQSPSSLSASVGDRVTITCKSTKSLLHSNGITYLYWYQQKPGSAPKLLIYQMSHLASGVPSRFSSSGSGTDFTLTISSLQPEDFATYYCAQNLEIPRTFGQGTKVEIKRTVAAPSVFIFPPSDEQLKSGTASVVCLLNNFYPREAKVQWKVDNALQSGNSQESVTEQDSKDSTYSLSSTLTLSKADYEKHKVYACEVTHQGLSSPVTKSFNRGECTRHRQPRGWEQKYNTVSFNLGEAYEYPTFIQDLRNELAKGTPVCQLPVTLQTIADDKRFVLVDITTTSKKTVKVAIDVTDVYVVGYQDKWDGKDRAVFLDKVPTVATSKLFPGVTNRVTLTFDGSYQKLVNAAKADRKALELGVNKLEFSIEAIHGKTINGQEAAKFFLIVIQMVSEAARFKYIETEVVDRGLYGSFKPNFKVLNLENNWGDISDAIHKSSPQCTTINPALQLISPSNDPWVVNKVSQISPDMGILKFKSSK
FI (fold increase) at 100 ng/mL [6]: 27.7 fold | IC50 (nM), MTS cytotoxicity assay, CAL-27 (EpCAM-positive) [7]: 18 nM | IC50 (nM), MTS cytotoxicity assay, HT-29 (EpCAM-positive) [7]: 15 nM | IC50 (nM), MTS cytotoxicity assay, MCF-7 (EpCAM-positive) [7]: 2.3 nM | IC50 (nM), MTS cytotoxicity assay, OVCAR-3 (EpCAM-positive) [7]: 2.9 nM | FI (fold increase) at 100 ng/mL [8]: 14 fold | FI (fold increase) at 100 ng/mL [9]: 40.9 fold | FI (fold increase) at 100 ng/mL [10]: 41.6 fold | MF (median fluorescence, % of WT) [11]: 94 % of WT

B3: VB6-845-(VH-IIr-CDR1/VL-Ir-Q50) (Fab)
chain 1: EVQLVQSGPGLVQPGGSVRISCAASGYTFTNYGMNWVKQAPGKGLEWMGWINTYTGESTYADSFKGRFTFSLDTSASAAYLQINSLRAEDTAVYYCARFAIKGDYWGQGTLLTVSSASTKGPSVFPLAPSSKSTSGGTAALGCLVKDYFPEPVTVSWNSGALTSGVHTFPAVLQSSGLYSLSSVVTVPSSSLGTQTYICNVNHKPSNTKVDKKVEPKSCTRHRQPRGWEQLYNTVSFNLGEAYEYPTFIQDLRNELAKGTPVCQLPVTLQTIADDKRFVLVDITTTSKKTVKVAIDVTDVYVVGYQDKWDGKDRAVFLDKVPTVATSKLFPGVTNRVTLTFDGSYQKLVNAAKADRKALELGVNKLEFSIEAIHGKTINGQEAAKFFLIVIQMVSEAARFKYIETEVVDRGLYGSFKPNFKVLNLENNWGDISDAIHKSSPQCTTINPALQLISPSNDPWVVNKVSQISPDMGILKFKSSK
chain 2: HHHHHHDIQMTQSPSSLSASVGDRVTITCRSTKSLLHSNGITYLYWYQQKPGKAPKLLIYQMSNLASGVPSRFSSSGSGTDFTLTISSLQPEDFATYYCAQNLEIPRTFGQGTKVELKRTVAAPSVFIFPPSDEQLKSGTASVVCLLNNFYPREAKVQWKVDNALQSGNSQESVTEQDSKDSTYSLSSTLTLSKADYEKHKVYACEVTHQGLSSPVTKSFNRGEC
MF (median fluorescence, % of WT) [12]: 78 % of WT

B4: VB6-845 VH-IIr-N35-Q98 / VL-WT (Fab)
heavy: B2 heavy
light: B2 light with K24R, S47K, H58N, I111L
MF (median fluorescence, % of WT) [13]: 100 % of WT

B5: VB6-845 VH-WT / VL-IIr-KSHI (Fab)
heavy: EVQLVQSGPGLVQPGGSVRISCAASGYTFTNYGMNWVKQAPGKGLEWMGWINTYTGESTYADSFKGRFTFSLDTSASAAYLQINSLRAEDTAVYYCARFAIKGDYWGQGTLLTVSSASTKGPSVFPLAPSSKSTSGGTAALGCLVKDYFPEPVTVSWNSGALTSGVHTFPAVLQSSGLYSLSSVVTVPSSSLGTQTYICNVNHKPSNTKVDKKVEPKSC
light: B2 light
MF (median fluorescence, % of WT) [14]: 89 % of WT

B6: VB5-845-Algo Fab (Fab, V domains shown)
VH: EVQLQQSGPGLVQPGGSVRISCAASGYTFTAYGMNWVRQAPGKGLEWMGWINTYTGESTYADSFKGRFEFSLDTHNSSAYLQIQSLREEDTAVYYCARFAIQGDYWGQGTLVTVSS
VL: B1 VL with R24K, K47S, N58H, L111I
Kd [4]: 1.31 nM
